# Publication PMC7954794, “Protein context shapes the specificity of SH3 domain-mediated interactions in vivo” (Nature Communications, 2021)
# B1: S. cerevisiae Abp1 (full length; SH3 domain 535-592 mutated) / Hua2 (parent)
# chain 1: MALEPIDYTTHSREIDAEYLKIVRGSDPDTTWLIISPNAKKEYEPESTGSSFHDFLQLFDETKVQYGLARVSPPGSDVEKIIIIGWCPDSAPLKTRASFAANFAAVANNLFKGYHVQVTARDEDDLDENELLMKISNAAGARYSIQTSSKQQGKASTPPVKKSFTPSKSPAPVSKKEPVKTPSPAPAAKISSRVNDNNDDDDWNEPELKERDFDQAPLKPNQSSYKPIGKIDLQKVIAEEKAKEDPRLVQKPTAAGSKIDPSSDIANLKNESKLKRDSEFNSFLGTTKPPSMTESSLKNDDDKVIKGFRNEKSPAQLWAERKAKQNSGNAETKAEAPKPEVPEDEPEGEPDVKDLKSKFEGLAASEKEEEEMENKFAPPPKKSEPTIISPKPFSKPQEPVKAEEAEQPKTDYKKIGNPLPGMHIEADNEEEPEENDDDWDDDEDEAAQPPLPSRNVASGAPVQKEEPEQEEIAPSLPSRNSIPAPKQEEAPEQAPEEEIEEEAEEAAPQLPSRSSAAPPPPPRRATPEKKPKENPWATAEYDYDAAEDNELTFVENDKIINIEFVDDDWWLGELEKDGSKGLFPSNYVSLGN
# chain 2: MQQTKFGKMYLDHDSVVEYSEDEIVEADRITLGYKKRLSMIENQMRHLLEDFSLDVQQIEPILADLQKYYDAFLQLLQKRNKSLQCKRSTHQPVPSPMNSQTSTNAKVNLSGKLMKFQLNSVQKFDEENILRILQNKIEFEHYFQIDKGKKQKVLLLAVYQCLNGPTRLHKVLNIEGIIHNNSIRTILGKQVSSSKWTVFLYDVKLVLLAHRQDVPNLETSKMIVRYGDLFPCALYFKDHTAY
# Variants of: B1
# Assay: DHFR protein-fragment complementation in yeast (Abp1-DHFR F[1,2] x partner-DHFR F[3]), deep mutational scanning, second methotrexate selection vs reference
# Conditions: with Hua2; S. cerevisiae, DHFR-PCA selection in liquid with methotrexate at 30 C, two 72 h selections (the score uses the second); reference = the pre-selection culture; not an affinity; scale: DMS score: mean over two replicates of log2(f_test/f_ref + 0.5)/ln 2, minus the synonymous-codon median
row,Variant,screen value
1,chain 1 Y543S,-2.67
2,chain 1 Y543D,-2.57
3,chain 1 Y543K,-2.96
4,chain 1 Y543Q,-2.77
5,chain 1 Y543C,-2.15
6,chain 1 Y543N,-1.79
7,chain 1 G572W,-2.24
8,chain 1 G572V,-2.77
9,chain 1 G572R,-2.78
10,chain 1 G572E,-2.36
11,chain 1 I559N,-2.48
12,chain 1 I559F,-1.21
13,chain 1 I559T,-2.21
14,chain 1 I559S,-1.61
15,chain 1 I559M,-1.42
16,chain 1 K580G,-2.39
17,chain 1 K580D,-2.63
18,chain 1 K580W,-1.55
19,chain 1 K580Y,-1.88
20,chain 1 D568C,-2.91
21,chain 1 K558G,-2.62
22,chain 1 K558D,-2.59
23,chain 1 K558N,-1.29
24,chain 1 K558W,-2.78

row,Variant,screen value
1,chain 1 D557C,-2.97
2,chain 1 D557N,-1.63
3,chain 1 D557G,-2.9
4,chain 1 D557Y,-2.77
5,chain 1 D557M,-2.77
6,chain 1 D557S,-2.41
7,chain 1 D557A,-2.31
8,chain 1 D557V,-2.87
9,chain 1 D557K,-2.91
10,chain 1 A545V,-1.96
11,chain 1 A545P,-1.42
12,chain 1 A545M,-1.83
13,chain 1 A545L,-2.7
14,chain 1 A545W,-2.91
15,chain 1 A545Y,-2.53
16,chain 1 A545D,-1.35
17,chain 1 A545F,-2.84
18,chain 1 A545H,-1.96
19,chain 1 V565E,-2.08
20,chain 1 V565I,-1.06
21,chain 1 V565G,-1.37
22,chain 1 V565F,-1.5
23,chain 1 D548Y,-1.22
24,chain 1 E563W,-2.93

row,Variant,screen value
1,chain 1 E563G,-1.92
2,chain 1 E563Y,-2.45
3,chain 1 E563M,-1.5
4,chain 1 E563F,-1.96
5,chain 1 E563L,-1.4
6,chain 1 F583C,-2.31
7,chain 1 F583S,-2.62
8,chain 1 F583L,-1.78
9,chain 1 F583I,-1.72
10,chain 1 F583V,-2.31
11,chain 1 F583Y,-1.68
12,chain 1 L574Q,-1.79
13,chain 1 L574G,-2.91
14,chain 1 L574H,-1.08
15,chain 1 L574A,-1.53
16,chain 1 L574S,-1.23
17,chain 1 L574P,-2.01
18,chain 1 I562S,-2.46
19,chain 1 I562N,-1.85
20,chain 1 I562C,-2.84
21,chain 1 I562W,-2.85
22,chain 1 I562F,-2.51
23,chain 1 I562M,-1.57
24,chain 1 I562T,-2.61

row,Variant,screen value
1,chain 1 F553S,-2.83
2,chain 1 F553V,-1.32
3,chain 1 F553C,-2.38
4,chain 1 F553Y,-2.41
5,chain 1 E550A,-2.77
6,chain 1 E550G,-2.84
7,chain 1 E550V,-2.76
8,chain 1 E550K,-2.04
9,chain 1 E550D,-1.79
10,chain 1 D577M,-2.7
11,chain 1 D577A,-1.59
12,chain 1 D577G,-1.18
13,chain 1 D577R,-2.77
14,chain 1 D577Y,-2.59
15,chain 1 D577K,-2.12
16,chain 1 D577V,-2.26
17,chain 1 D577N,-2.24
18,chain 1 D577Q,-2.41
19,chain 1 D577W,-2.9
20,chain 1 D577E,-1.09
21,chain 1 D577H,-2.21
22,chain 1 D577L,-2.96
23,chain 1 P584R,-2.94
24,chain 1 P584S,-2.56

row,Variant,screen value
1,chain 1 P584H,-2.12
2,chain 1 P584T,-2.19
3,chain 1 P584A,-2.85
4,chain 1 P584L,-2.52
5,chain 1 T538W,-1.19
6,chain 1 T538G,-2.9
7,chain 1 T538P,-1.88
8,chain 1 T538D,-2.65
9,chain 1 Y587N,-1.43
10,chain 1 Y587W,-1.66
11,chain 1 Y587Q,-2.81
12,chain 1 Y587D,-2.16
13,chain 1 T552P,-2.02
14,chain 1 T552Y,-2.8
15,chain 1 T552E,-1.32
16,chain 1 T552M,-2.22
17,chain 1 T552F,-2.87
18,chain 1 T552Q,-1.13
19,chain 1 T552V,-2.72
20,chain 1 T552C,-1.73
21,chain 1 T552I,-1.99
22,chain 1 G581A,-2.84
23,chain 1 G581D,-2.22
24,chain 1 G581V,-2.59

row,Variant,screen value
1,chain 1 G581S,-2.77
2,chain 1 G581R,-2.96
3,chain 1 G581C,-2.66
4,chain 1 A539G,-2.8
5,chain 1 A539P,-2.72
6,chain 1 A539T,-1.45
7,chain 1 A539E,-2.3
8,chain 1 A539S,-1.72
9,chain 1 W570C,-1.57
10,chain 1 W570N,-2.68
11,chain 1 W570R,-2.58
12,chain 1 W570L,-2.25
13,chain 1 W570Y,-2.31
14,chain 1 W570G,-2.48
15,chain 1 W570F,-2.79
16,chain 1 W570S,-2.8
17,chain 1 L582V,-2
18,chain 1 L582P,-2.04
19,chain 1 L582C,-2.82
20,chain 1 L582N,-2.32
21,chain 1 L582Q,-2.88
22,chain 1 L582S,-2.57
23,chain 1 L582H,-1.2

# Same assay, conditions: with Hua2; S. cerevisiae, DHFR-PCA selection in liquid with methotrexate at 30 C, two 72 h selections (the score uses the second); reference = the pre-selection culture; not an affinity; value at the no-binding floor (a bound); scale: DMS score: mean over two replicates of log2(f_test/f_ref + 0.5)/ln 2, minus the synonymous-codon median
row,Variant,screen value
1,chain 1 D568P,< -3.06
2,chain 1 D557R,< -3.06
3,chain 1 D557I,< -3.06
4,chain 1 D557F,< -3.06
5,chain 1 D557L,< -3.06
6,chain 1 D557W,< -3.06
7,chain 1 E550C,< -3.06
8,chain 1 E550N,< -3.06
9,chain 1 E550L,< -3.06
10,chain 1 E550M,< -3.06
11,chain 1 D577F,-2.98
12,chain 1 D577P,< -3.06
13,chain 1 D577I,-2.99
14,chain 1 A539Y,< -3.06
15,chain 1 A539Q,-3.03
16,chain 1 A539M,< -3.06
17,chain 1 A539F,< -3.06
18,chain 1 A539N,< -3.06
19,chain 1 A539R,-3.02
20,chain 1 A539L,< -3.06
21,chain 1 A539W,-3.01
22,chain 1 A539I,-3.01
23,chain 1 A539D,-3
24,chain 1 A539K,< -3.06
